{"source": "paper PMC3254805", "molecular_target": "endogenous GSK3β (UniProt P49841)", "experiment": "anti-FoxO3a IP, GSK3β blot", "conditions": "reference: HA-FoxO3a-WT; sites T32,S253,S315"}
{"substance": "FoxO3a (RLuc- or HA-tagged constructs, WT and TM) (from UniProt O43524) HA-FoxO3a-TM (triple mutant)", "values": [{"measurement": "binding against the reference", "result": "stronger"}]}
